Assay results from article PMC5626764 (2017).

Biological target: T1, ephrinB2-Fc (human ephrinB2 residues 1-229, Factor XA cleavage site, human IgG1 residues 100-330) (human, UniProt P52799 28-229)
T1 chain: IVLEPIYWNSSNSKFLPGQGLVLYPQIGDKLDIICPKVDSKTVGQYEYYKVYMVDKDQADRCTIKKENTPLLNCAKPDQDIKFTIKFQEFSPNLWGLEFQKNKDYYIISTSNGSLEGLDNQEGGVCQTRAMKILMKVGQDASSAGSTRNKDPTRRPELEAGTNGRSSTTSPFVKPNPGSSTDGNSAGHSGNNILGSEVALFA
Experiment: ELISA

B1: Wildtype NiV G ectodomain (Nipah virus attachment glycoprotein G, residues 71-602, N-terminal His6-tag) (domain or fragment)
chain: QNYTRSTDNQAVIKDALQGIQQQIKGLADKIGTEIGPKVSLIDTSSTITIPANIGLLGSKISQSTASINENVNEKCKFTLPPLKIHECNISCPNPLPFREYRPQTEGVSNLVGLPNNICLQKTSNQILKPKLISYTLPVVGQSGTCITDPLLAMDEGYFAYSHLERIGSCSRGVSKQRIIGVGEVLDRGDEVPSLFMTNVWTPPNPNTVYHCSAVYNNEFYYVLCAVSTVGDPILNSTYWSGSLMMTRLAVKPKSNGGGYNQHQLALRSIEKGRYDKVMPYGPSGIKQGDTLYFPAVGFLVRTEFKYNDSNCPITKCQYSKPENCRLSMGIRPNSHYILRSGLLKYNLSDGENPKVVFIEISDQRLSIGSPSKIYDSLGQPVFYQASFSWDTMIKFGDVLTVNPLVVNWRNNTVISRPGQSQCPRFNTCPEICWEGVYNDAFLIDRINWISAGVFLDSNQTAENPVFTVFKDNEILYRAQLASEDTNAQKTITNCFLLKNKIWCISLVEIYDTGDNVIRPKLFAVKIPEQCT
Ki: 0.038 nM
